The results in this text go back to PMC3163394 (Cell, 2011).

The stoichiometry N is the number of molecules, sites or subunits per partner or assembly.

This series deals with the molecule itself. As to the kind of experiment: crystal structure.

B1: Shb17 (H13A), catalytically inactive mutant of sedoheptulose-1,7-bisphosphatase (enzyme, S. cerevisiae)
chain: MPSLTPRCIIVRAGQTEWSKSGQYTGLTDLPLTPYGEGQMLRTGESVFRNNQFLNPDNITYIFTSPRLRARQTVDLVLKPLSDEQRAKIRVVVDDDLREWEYGDYEGMLTREIIELRKSRGLDKERPWNIWRDGCENGETTQQIGLRLSRAIARIQNLHRKHQSEGRASDIMVFAHGHALRYFAAIWFGLGVQKKCETIEEIQNVKSYDDDTVPYVKLESYRHLVDNPCFLLDAGGIGVLSYAHHNIDEPALELAGPFVSPPEEESQHGDV
With B1, the “stoichiometry N” value stood at 2.
